± gives the uncertainty stated by the source.
Experiment: protein stability index of a GFP-peptide fusion (yeast GPS) (PSI 1-4); higher = more stable; sorted into four equal gates, so the index is relative within each strain
How it was run: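 Plasmids in a pooled yeast library fused tiled 17-residue yeast protein peptides downstream of GFP and also expressed Cherry. Mid-log cultures grown without leucine were sorted into four equal gates by GFP/Cherry fluorescence ratio. Each gate's plasmids were PCR-amplified and Illumina-sequenced, and reads were matched to strains by barcodes. The protein stability index is derived by multiplying each gate's read frequency by its gate number and summing the results.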

TTIGDTTDKNTTDDKSM [BRN1]
protein stability index (doa10∆): 3.24 ± 0.082 | protein stability index (pdr5∆): 3.33 ± 0.059 | protein stability index (san1∆): 3.44 ± 0.044 | protein stability index (ubr1∆): 3.27 ± 0.043

TTIKAIFDGNYGESDIH [YMR129W/POM152]
protein stability index (doa10∆): 3.23 ± 0.09 | protein stability index (pdr5∆): 2.97 ± 0.14 | protein stability index (san1∆): 3.58 ± 0.2 | protein stability index (ubr1∆): 2.89 ± 0.12

TTKILGDKILGNLYSKV [YML103C/NUP188]
protein stability index (doa10∆): 2.69 ± 0.079 | protein stability index (pdr5∆): 2.82 ± 0.08 | protein stability index (san1∆): 3.16 ± 0.058 | protein stability index (ubr1∆): 2.75 ± 0.051

TTKMWPTNCPLRQFKTC [BRR2]
protein stability index (doa10∆): 2.41 ± 0.093 | protein stability index (pdr5∆): 2.31 ± 0.095 | protein stability index (san1∆): 2.01 ± 0.082 | protein stability index (ubr1∆): 2.34 ± 0.086

TTMFENTGWSCSRIIKI [RGR1]
protein stability index (doa10∆): 3.61 ± 0.2 | protein stability index (pdr5∆): 3.45 ± 0.13 | protein stability index (san1∆): 3.37 ± 0.11 | protein stability index (ubr1∆): 3.51 ± 0.1

TTNLDIDLLTFQYGSRL [RPP1]
protein stability index (doa10∆): 3.29 ± 0.087 | protein stability index (pdr5∆): 3.22 ± 0.073 | protein stability index (san1∆): 3.06 ± 0.092 | protein stability index (ubr1∆): 2.98 ± 0.055

TTTATPHANPITHAHSL [PGD1]
protein stability index (doa10∆): 2.84 ± 0.043 | protein stability index (pdr5∆): 3.01 ± 0.041 | protein stability index (san1∆): 2.88 ± 0.035 | protein stability index (ubr1∆): 3.003 ± 0.029

TTTMLQLFSTFDRLNGN [SSN2]
protein stability index (doa10∆): 3.08 ± 0.076 | protein stability index (pdr5∆): 3.12 ± 0.073 | protein stability index (san1∆): 3.28 ± 0.055 | protein stability index (ubr1∆): 3.02 ± 0.041

TTVITVFLEFSLNFIPI [YML103C/NUP188]
protein stability index (doa10∆): 1.42 ± 0.038 | protein stability index (pdr5∆): 1.33 ± 0.032 | protein stability index (san1∆): 1.83 ± 0.064 | protein stability index (ubr1∆): 1.58 ± 0.023

TTVYRYSAAKKIPDTYT [YAR002W/NUP60]
protein stability index (doa10∆): 1.34 ± 0.087 | protein stability index (pdr5∆): 2.07 ± 0.094 | protein stability index (san1∆): 1.42 ± 0.14 | protein stability index (ubr1∆): 1.45 ± 0.077

TVENPLRNWEELNIIPR [PRP28]
protein stability index (doa10∆): 1.49 ± 0.041 | protein stability index (pdr5∆): 1.9 ± 0.054 | protein stability index (san1∆): 1.48 ± 0.086 | protein stability index (ubr1∆): 1.77 ± 0.046

TVFFLIRVAETRGGASA [YJL039C/NUP192]
protein stability index (doa10∆): 2.18 ± 0.071 | protein stability index (pdr5∆): 2.08 ± 0.074 | protein stability index (san1∆): 2.76 ± 0.13 | protein stability index (ubr1∆): 2.13 ± 0.047

TVFLPMVGLVDPDKLKP [RPT5]
protein stability index (doa10∆): 2.77 ± 0.061 | protein stability index (pdr5∆): 2.66 ± 0.079 | protein stability index (san1∆): 2.47 ± 0.058 | protein stability index (ubr1∆): 2.44 ± 0.062

TVHSKSRTRAHAQSKRE [RPL19A]
protein stability index (doa10∆): 3.19 ± 0.074 | protein stability index (pdr5∆): 3.07 ± 0.079 | protein stability index (san1∆): 2.96 ± 0.068 | protein stability index (ubr1∆): 3.19 ± 0.069

TVIPEDEEIIQLHFSLL [RPO21]
protein stability index (doa10∆): 2.64 ± 0.06 | protein stability index (pdr5∆): 2.98 ± 0.067 | protein stability index (san1∆): 2.98 ± 0.057 | protein stability index (ubr1∆): 2.56 ± 0.086

TVKENESDSKLQCHISG [UBP6]
protein stability index (doa10∆): 3.28 ± 0.098 | protein stability index (pdr5∆): 3.3 ± 0.11 | protein stability index (san1∆): 3.05 ± 0.087 | protein stability index (ubr1∆): 3.15 ± 0.1

TVQLTFLIDVLKIYAQI [YCG1]
protein stability index (doa10∆): 1.58 ± 0.047 | protein stability index (pdr5∆): 1.99 ± 0.05 | protein stability index (san1∆): 1.74 ± 0.059 | protein stability index (ubr1∆): 1.7 ± 0.042

TVRLVNLFSSTGFKGLL [SRB2]
protein stability index (doa10∆): 2.31 ± 0.073 | protein stability index (pdr5∆): 2.73 ± 0.055 | protein stability index (san1∆): 2.76 ± 0.06 | protein stability index (ubr1∆): 2.9 ± 0.039

TVTNSKFRSSILRKSFD [RPN2]
protein stability index (doa10∆): 2.88 ± 0.1 | protein stability index (pdr5∆): 3.07 ± 0.091 | protein stability index (san1∆): 2.66 ± 0.094 | protein stability index (ubr1∆): 3.31 ± 0.091

TYEAIEITDAYCFAKND [YMR129W/POM152]
protein stability index (doa10∆): 2.93 ± 0.061 | protein stability index (pdr5∆): 2.66 ± 0.053 | protein stability index (san1∆): 2.7 ± 0.05 | protein stability index (ubr1∆): 3.01 ± 0.045

TYPAGFMDVITLDATNE [RPS4A]
protein stability index (doa10∆): 2.71 ± 0.085 | protein stability index (pdr5∆): 3.11 ± 0.086 | protein stability index (san1∆): 3.11 ± 0.062 | protein stability index (ubr1∆): 2.95 ± 0.063

VACLFITISIHGKPTKG [SSN8]
protein stability index (doa10∆): 1.19 ± 0.061 | protein stability index (pdr5∆): 1.24 ± 0.061 | protein stability index (san1∆): 1.28 ± 0.16 | protein stability index (ubr1∆): 1.5 ± 0.11

VAEKMNGCSGADVKGVC [RPT6]
protein stability index (doa10∆): 3.41 ± 0.24 | protein stability index (san1∆): 3.19 ± 0.23 | protein stability index (ubr1∆): 3.07 ± 0.11

VAESFTDEADSSMTEAS [SNF2]
protein stability index (doa10∆): 3.46 ± 0.12 | protein stability index (pdr5∆): 3.28 ± 0.11 | protein stability index (san1∆): 3.38 ± 0.053 | protein stability index (ubr1∆): 3.14 ± 0.096

VAGGKKALAIFVPVPSL [RPS7A]
protein stability index (doa10∆): 2.49 ± 0.056 | protein stability index (pdr5∆): 1.53 ± 0.047 | protein stability index (san1∆): 1.7 ± 0.088 | protein stability index (ubr1∆): 1.54 ± 0.043

VANVKDLETLTMHTKTY [RPL32]
protein stability index (doa10∆): 3.08 ± 0.13 | protein stability index (pdr5∆): 3.01 ± 0.11 | protein stability index (san1∆): 2.98 ± 0.075 | protein stability index (ubr1∆): 2.95 ± 0.077

VASLVLARGHRVEKIPE [RPL4A]
protein stability index (pdr5∆): 3.4 ± 0.24

VASQTVKKVIEINPFLL [PRE2]
protein stability index (pdr5∆): 3.07 ± 0.17 | protein stability index (san1∆): 2.44 ± 0.11

VDDAIELALKTLSKTTD [PRE9]
protein stability index (doa10∆): 2.43 ± 0.066 | protein stability index (pdr5∆): 1.92 ± 0.063 | protein stability index (san1∆): 2.42 ± 0.074 | protein stability index (ubr1∆): 2.64 ± 0.057

VDEEDENGTHNDEVNED [YCG1]
protein stability index (doa10∆): 3.46 ± 0.09 | protein stability index (pdr5∆): 3.32 ± 0.17 | protein stability index (san1∆): 3.55 ± 0.11 | protein stability index (ubr1∆): 3.51 ± 0.077

VDENGDPIWQHQSLGPD [RET1]
protein stability index (doa10∆): 3.25 ± 0.056 | protein stability index (pdr5∆): 3.21 ± 0.081 | protein stability index (san1∆): 3.33 ± 0.042 | protein stability index (ubr1∆): 3.27 ± 0.084

VDIVNQWFLQYQNQFVE [YML103C/NUP188]
protein stability index (doa10∆): 1.79 ± 0.055 | protein stability index (pdr5∆): 2.1 ± 0.054 | protein stability index (san1∆): 1.81 ± 0.065 | protein stability index (ubr1∆): 2.29 ± 0.042

VDLIEKFLRYNPLEKRD [RPB10]
protein stability index (doa10∆): 2.91 ± 0.14 | protein stability index (pdr5∆): 3.27 ± 0.12 | protein stability index (san1∆): 3.23 ± 0.071 | protein stability index (ubr1∆): 3.11 ± 0.041

VDNSPTTESNSRLKALN [YLR335W/NUP2]
protein stability index (doa10∆): 3.18 ± 0.07 | protein stability index (pdr5∆): 3.12 ± 0.057 | protein stability index (san1∆): 3.11 ± 0.058 | protein stability index (ubr1∆): 2.97 ± 0.059

VDNVWADVYAKALEGKD [RPP1B]
protein stability index (doa10∆): 3.14 ± 0.1 | protein stability index (pdr5∆): 3.1 ± 0.16 | protein stability index (san1∆): 3.35 ± 0.12 | protein stability index (ubr1∆): 3.06 ± 0.11

VDPEQEAHNKALNQFKR [RPT4]
protein stability index (doa10∆): 3.37 ± 0.19 | protein stability index (pdr5∆): 3.26 ± 0.13 | protein stability index (san1∆): 3.41 ± 0.11 | protein stability index (ubr1∆): 3.02 ± 0.14

VDPIQSVKGKVVIDAFR [RPN11]
protein stability index (doa10∆): 2.59 ± 0.072 | protein stability index (pdr5∆): 2.65 ± 0.092 | protein stability index (san1∆): 2.1 ± 0.093 | protein stability index (ubr1∆): 2.26 ± 0.081

VDPKRLAMVIIKEFVDD [DSN1]
protein stability index (doa10∆): 3.33 ± 0.1 | protein stability index (pdr5∆): 3.3 ± 0.1 | protein stability index (san1∆): 3.31 ± 0.096 | protein stability index (ubr1∆): 3.1 ± 0.066

VDSISLHKIFYKVLKNN [YCG1]
protein stability index (doa10∆): 1.99 ± 0.047 | protein stability index (pdr5∆): 2.32 ± 0.039 | protein stability index (san1∆): 2.71 ± 0.037 | protein stability index (ubr1∆): 2.3 ± 0.042

VDSRATAGNWVASQTVK [PRE2]
protein stability index (doa10∆): 3.17 ± 0.12 | protein stability index (pdr5∆): 3.4 ± 0.079 | protein stability index (san1∆): 3.13 ± 0.078 | protein stability index (ubr1∆): 3.26 ± 0.066

VDVNNKFIALCEQQPSQ [SIN4]
protein stability index (doa10∆): 2.82 ± 0.051 | protein stability index (pdr5∆): 2.96 ± 0.05 | protein stability index (san1∆): 3.18 ± 0.052 | protein stability index (ubr1∆): 3 ± 0.059

VEAGMIALRNGQSSVKH [RPT5]
protein stability index (doa10∆): 2.87 ± 0.14 | protein stability index (pdr5∆): 2.9 ± 0.16 | protein stability index (san1∆): 2.79 ± 0.11 | protein stability index (ubr1∆): 2.6 ± 0.11

VEASRRRRSSTNKSKRP [MED1]
protein stability index (doa10∆): 3.19 ± 0.066 | protein stability index (pdr5∆): 3.31 ± 0.056 | protein stability index (san1∆): 3.22 ± 0.044 | protein stability index (ubr1∆): 3.28 ± 0.043

VEFINKMENFEFLPLSL [SRB8]
protein stability index (doa10∆): 3.08 ± 0.16 | protein stability index (pdr5∆): 3 ± 0.069 | protein stability index (san1∆): 3.1 ± 0.12 | protein stability index (ubr1∆): 3.16 ± 0.097

VEIAFLFRAIYLYCLDN [YCG1]
protein stability index (doa10∆): 1.54 ± 0.065 | protein stability index (pdr5∆): 1.3 ± 0.054 | protein stability index (san1∆): 1.21 ± 0.11 | protein stability index (ubr1∆): 1.2 ± 0.05

VEIIDQKKVLIDGPKAG [RPL14A]
protein stability index (doa10∆): 2.8 ± 0.18 | protein stability index (pdr5∆): 2.65 ± 0.09 | protein stability index (san1∆): 2.91 ± 0.076 | protein stability index (ubr1∆): 2.72 ± 0.065

VEKLGKKMEARGQSIWV [RPN9]
protein stability index (ubr1∆): 1.51 ± 0.14

VELHGKRKLDIGKDTFV [PRP8]
protein stability index (doa10∆): 3.26 ± 0.29 | protein stability index (pdr5∆): 2.94 ± 0.13 | protein stability index (san1∆): 2.47 ± 0.17 | protein stability index (ubr1∆): 2.21 ± 0.11

VENDTFIERNFTPQEIE [FAS2]
protein stability index (doa10∆): 2.87 ± 0.083 | protein stability index (pdr5∆): 2.32 ± 0.062 | protein stability index (san1∆): 2.15 ± 0.068 | protein stability index (ubr1∆): 3.18 ± 0.05

VENSVLIEKVDDTAANN [YIL149C/MLP2]
protein stability index (doa10∆): 2.83 ± 0.15 | protein stability index (pdr5∆): 2.82 ± 0.15 | protein stability index (san1∆): 2.68 ± 0.14 | protein stability index (ubr1∆): 2.79 ± 0.088

VENWIIDDKGVLMERKD [ITC1]
protein stability index (doa10∆): 1.69 ± 0.099 | protein stability index (pdr5∆): 2.98 ± 0.18 | protein stability index (san1∆): 3.09 ± 0.15 | protein stability index (ubr1∆): 2.7 ± 0.1

VENYETSSAFFYQQVHK [SIR4]
protein stability index (doa10∆): 2.75 ± 0.04 | protein stability index (pdr5∆): 2.57 ± 0.042 | protein stability index (san1∆): 2.43 ± 0.045 | protein stability index (ubr1∆): 2.52 ± 0.03

VERIQKMIEKIEKMSTI [YIL149C/MLP2]
protein stability index (doa10∆): 3.13 ± 0.29 | protein stability index (pdr5∆): 3.41 ± 0.14 | protein stability index (san1∆): 2.81 ± 0.19
